Assay in all cases: cell-based or functional assay
The target of assay [1] is CVS-11 rabies virus (rabies virus) (UniProt O92284).
The target in assay [2] is Street rabies virus Deer, DRV, Jilin (rabies virus).
In assay [3] the target is Street rabies virus Ferret Badger, JX09-27, Jiangxi (rabies virus).
Assay [4] has as its target Street rabies virus Human, HN35, Hunan (rabies virus).
In assay [5] the target is Street rabies virus Dog, SC-CD09, Sichuan (rabies virus).
The target in assay [6] is Street rabies virus Dog, GN07, Guangdong (rabies virus).
Assay [7] concerns the target Street rabies virus Ferret Badger, ZJ-LA, Zhejiang (rabies virus).
Assay [8] has as its target Street rabies virus Dog, BD06, Hebei (rabies virus).
The target in assay [9] is Street rabies virus Human, YN1, Yunnan (rabies virus).
The target of assay [10] is Street rabies virus Ferret Badger, JX08-45, Jiangxi (rabies virus).
The target of assay [11] is Street rabies virus Dog, ZJ-HZ09, Zhejiang (rabies virus).

Changes are numbered by the printed parent chain.

UniProt O92284, sequence (O92284 20-524): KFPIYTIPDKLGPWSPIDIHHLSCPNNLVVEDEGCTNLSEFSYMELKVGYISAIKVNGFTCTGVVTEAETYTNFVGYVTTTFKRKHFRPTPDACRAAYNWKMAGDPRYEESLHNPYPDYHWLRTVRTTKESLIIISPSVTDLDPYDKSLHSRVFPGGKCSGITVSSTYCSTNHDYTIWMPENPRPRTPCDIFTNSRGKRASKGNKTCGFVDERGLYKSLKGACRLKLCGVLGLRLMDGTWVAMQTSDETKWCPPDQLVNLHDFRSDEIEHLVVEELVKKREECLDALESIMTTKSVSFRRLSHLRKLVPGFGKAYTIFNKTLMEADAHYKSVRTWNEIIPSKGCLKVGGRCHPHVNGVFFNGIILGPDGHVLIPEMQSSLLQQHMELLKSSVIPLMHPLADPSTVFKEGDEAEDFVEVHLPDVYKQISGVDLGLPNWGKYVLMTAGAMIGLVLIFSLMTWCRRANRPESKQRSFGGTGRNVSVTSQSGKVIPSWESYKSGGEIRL

B1: Hu1A9-1 (antibody, V domains shown)
VH: QVQLVQSGAEVKKPGASVKVSCKASGYSFTDYIMLWVRQAPGQRLEWIGDIYPYYGSTSYNLKFKGKATLTVDTSASTAYMELSSLRSEDTAVYYCARQGGDGNYVLFDYWGQGTLVTVSS
VL: DIQMTQSPSSLSASVGDRVTITCKASQNVGTTVAWYQQKPGKAPKALIYSASYRYSGVPSRFSGSGSGTDFTLTISSLQPEDFATYYCQQYNSYPFTFGQGTKLEIKR
In assay [1], B1 had a Neutralization potency (IU/mg), FAVN of 2100 IU/mg; a Neutralization potency (IU/mg), RFFIT of 2290 IU/mg; a mouse neutralization test (MNT): survival rate at 0.004 mg/mL antibody of 100%.

B2: Hu1A9-2 (antibody, V domains shown)
VH: B1 VH
VL: B1 VL with A46V
Take B2: in assay [1], the Neutralization potency (IU/mg), FAVN turned out to be 405 IU/mg and the Neutralization potency (IU/mg), RFFIT was found to be 1310 IU/mg.

B3: Mouse CT.RV 7G11A3 2G11 (antibody, V domains shown)
VH: EVQLVESGGGLVKPGGSLILSCAASGFTFSGFAMSWVRQTPEKRLEWVATISSGGTYTYSPDSVMGRFTISRDNAKNTLYLQMSSLRSEDTAMYYCARRLRRNYYSMDYWGQGTSVTVSS
VL: DVVLTQAPLSLPVNIGDQASISCKSTKSLLNSDGFTYLDWYLQKPGQSPQLLIYLVSNRFSGVPDRFSGSGSGTDFTLKISRVEAEDLGIYFCFQSNYLPFTFGSGTKLEIK
For B3, the mouse neutralization test (MNT): survivors of 8 mice at day 20 (of 8 surviving) in assay [2] stood at 8; in assay [3] it was 8; in assay [4] it was 8; in assay [5] it was 8; in assay [6], 7; in assay [7], 8. Besides, the mouse neutralization test (MNT): survivors of 8 mice at day 20 (of 8 surviving) was 6 in assay [8], 7 in [9], 8 in assay [10] and 7 in assay [11]. This molecule gave a Neutralization potency (IU/mg), FAVN in assay [1] of 8310 IU/mg. The Neutralization potency (IU/mg), RFFIT in assay [1] was 1670 IU/mg. This molecule also returned a Neutralizing Potency (IU/mg), RFFIT in assay [1] of 701 IU/mg.

B4: Mouse CT.RV 3D11E3 1A9 (antibody, V domains shown)
VH: EIQLQQTGPELVKPGASVKISCKASGYSFTDYIMLWVKQSHGKSLEWIGDIYPYYGSTSYNLKFKGKATLTVDKSSSTAYMQLNSLTSEDSAVYYCARQGGDGNYVLFDYWGQGTTLTVSS
VL: DIVMTQSQKFMSTSVGDRVSVTCKASQNVGTTVAWYQQKPGQSPKALIYSASYRYSGVPDRFTGSGSGTDFTLTISNVQSEDLAEYFCQQYNSYPFTFGSGTKLEIK
For B4, the mouse neutralization test (MNT): survivors of 8 mice at day 20 (of 8 surviving) in assay [2] came out at 7; in assay [3], 8; in [4], 8; in assay [5], 8; in assay [6] it was 7; in assay [7] it was 7. Besides, the mouse neutralization test (MNT): survivors of 8 mice at day 20 (of 8 surviving) in assay [8] worked out at 4; in assay [9], 7; in [10] it was 8; in [11] it was 6. The same molecule gave a Neutralization potency (IU/mg), FAVN in [1] of 308 IU/mg. The same molecule returned a Neutralization potency (IU/mg), RFFIT in assay [1] of 1260 IU/mg. Further, the Neutralizing Potency (IU/mg), RFFIT in assay [1] amounted to 3680 IU/mg. Moreover, the mouse neutralization test (MNT): survival rate at 0.004 mg/mL antibody in assay [1] turned out to be 50%.
